# Assay results as given in paper PMC314469, “Protein Interaction Networks by Proteome Peptide Scanning” (PLoS Biology, 2004).
# T1: Boi1 SH3 (BOI1_YEAST), P38041
# T1 chain: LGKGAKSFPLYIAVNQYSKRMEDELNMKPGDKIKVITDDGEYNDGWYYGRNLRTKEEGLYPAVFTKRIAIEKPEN
# T2: Boi2 SH3 (BOI2_YEAST), P39969
# T2 chain: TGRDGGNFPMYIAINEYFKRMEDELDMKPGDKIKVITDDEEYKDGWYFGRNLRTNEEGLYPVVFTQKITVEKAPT
# T3: Myo5 SH3 (MYO5_YEAST), Q04439
# T3 chain: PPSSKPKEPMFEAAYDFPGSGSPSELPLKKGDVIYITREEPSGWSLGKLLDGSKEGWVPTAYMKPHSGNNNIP
# T4: Rvs167 SH3 (RV167_YEAST), P39743
# T4 chain: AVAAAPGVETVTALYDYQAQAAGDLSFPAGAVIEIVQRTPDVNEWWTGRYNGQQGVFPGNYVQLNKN
# T5: Yfr024 SH3 (LSB3_YEAST), P43603
# T5 chain: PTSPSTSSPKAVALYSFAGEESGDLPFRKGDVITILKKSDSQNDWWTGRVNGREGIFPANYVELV
# T6: Yhr016c SH3 (YSC84_YEAST), P32793
# T6 chain: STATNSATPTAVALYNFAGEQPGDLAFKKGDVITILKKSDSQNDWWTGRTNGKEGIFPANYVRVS
# Experiments:
# Test in all cases: SPOT array
# [1] = molecular target: T1, Boi1 SH3 (BOI1_YEAST), P38041
# [2] = molecular target: T2, Boi2 SH3 (BOI2_YEAST), P39969
# [3] = molecular target: T3, Myo5 SH3 (MYO5_YEAST), Q04439
# [4] = molecular target: T4, Rvs167 SH3 (RV167_YEAST), P39743
# [5] = molecular target: Sho1 SH3 (SHO1_YEAST), P40073
# [6] = molecular target: T5, Yfr024 SH3 (LSB3_YEAST), P43603
# [7] = molecular target: T6, Yhr016c SH3 (YSC84_YEAST), P32793
# Chain of Sho1 SH3 (SHO1_YEAST), P40073 (P40073 295-366): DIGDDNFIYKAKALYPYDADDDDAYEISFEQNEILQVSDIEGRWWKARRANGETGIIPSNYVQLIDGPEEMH
Binder,"normalised SPOT signal, Boehringer light units (BLU); mean over the file's lines of this peptide [1]","normalised SPOT signal, Boehringer light units (BLU); mean over the file's lines of this peptide [2]","normalised SPOT signal, Boehringer light units (BLU); mean over the file's lines of this peptide [3]","normalised SPOT signal, Boehringer light units (BLU); mean over the file's lines of this peptide [4]","normalised SPOT signal, Boehringer light units (BLU); mean over the file's lines of this peptide [5]","normalised SPOT signal, Boehringer light units (BLU); mean over the file's lines of this peptide [6]","normalised SPOT signal, Boehringer light units (BLU); mean over the file's lines of this peptide [7]"
SRSKRSKPLPPQLL [YJL095W 840-853],685,10.6,884,159,1740,411,10.4
SNFKKRDPGLPDFQ [YPL083C 302-315],238,6.1,161,89.5,36.9,212,49.4
SRYLKDHPNLPTPE [YOR353C 203-216],208,0,69.2,104,94.1,99.8,23.3
SMDSKRKPSPPSQR [YPL141C 758-771],1110,110,510,371,89.1,824,171
SMAMRPIPPLPTES [YNL152W 155-168],37,49,1330,32500,242,50600,46600
SQKKKALPKQPKAS [YDR028C 871-884],1060,29.5,493,186,3210,307,61.2
SRVTRKRPREPKST [YBL111C 334-347],794,40.5,829,162,95,674,49.5

# Other lines, results leading:
"normalised SPOT signal, Boehringer light units (BLU); mean over the file's lines of this peptide [1]","normalised SPOT signal, Boehringer light units (BLU); mean over the file's lines of this peptide [2]","normalised SPOT signal, Boehringer light units (BLU); mean over the file's lines of this peptide [3]","normalised SPOT signal, Boehringer light units (BLU); mean over the file's lines of this peptide [4]","normalised SPOT signal, Boehringer light units (BLU); mean over the file's lines of this peptide [5]","normalised SPOT signal, Boehringer light units (BLU); mean over the file's lines of this peptide [6]","normalised SPOT signal, Boehringer light units (BLU); mean over the file's lines of this peptide [7]",Binder
26.3,0,257,23.6,60.8,6.2,30.5,STDHRGTPANPGRV [YER163C 43-56]
60.2,67.9,215,232,25.7,161,14.1,SLKNRDGPITPSTI [YPR128C 112-125]
33,0.9,198,39.8,85,52.1,26.7,STNAKKDPFPPPKD [YGR140W 417-430]
982,58.4,673,7920,144,9730,697,SSKIRPTPRKPSRM [YER118C 4-17]
274,53.2,483,45.7,159,79.2,10.1,SLISKRNPSYPYGI [YEL050C 18-31]
75.5,28.1,212,163,31400,188,28.2,SLTLKTLPRVPTDS [YDL197C 461-474]
114,24.7,91.1,17.6,28.2,48.2,46.1,SVDPKNYPDAPLEG [YKL215C 38-51]
44.7,76.8,162,68.6,58.4,57.4,46.8,SLLAKYQPSLPLVE [YDL179W 224-237]
332,50.5,418,176,30.7,1380,39.2,SSVSKLKPSLPNKL [YPL242C 73-86]
